Experimental data from the supplement of paper PMC9233669.
Fewer inactive variants are shown than the library holds.

What was measured:
biotinyl-Leu-oxazolone = assay: self-aminoacylation, catalytic enhancement (BLO) (fold over background); higher = more active; k-Seq, kA / k0A0; sequences stand for … in GGGAAUGGAUCCACAUCUACGAAUUC…UUCACUGCAGACUUGACGAAGCUG
Method in brief: (§1)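 Mutagenized RNA pools with a 21-nt variable region (0.43 μM) were reacted with each biotinyl-aminoacyl-oxazolone at 2–1250 μM for 90 minutes at room temperature, in 50 μL HEPES/NaCl/KCl/MgCl2/CaCl2 buffer containing 5% acetonitrile at pH 6.9–7.0. RNA captured on streptavidin was quantified by triplicate qPCR and by Illumina sequencing. The fraction reacted for each sequence was fit to a pseudo-first-order model with bootstrapping, and catalytic enhancement is the median kA divided by the uncatalyzed rate, taken as the low-activity peak of a bimodal Gaussian fit.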

biotinyl-Phe-oxazolone = assay: self-aminoacylation, catalytic enhancement (BFO) (fold over background); higher = more active; k-Seq, kA / k0A0; sequences stand for … in GGGAAUGGAUCCACAUCUACGAAUUC…UUCACUGCAGACUUGACGAAGCUG
Method in brief: as §1

biotinyl-Val-oxazolone = assay: self-aminoacylation, catalytic enhancement (BVO) (fold over background); higher = more active; k-Seq, kA / k0A0; sequences stand for … in GGGAAUGGAUCCACAUCUACGAAUUC…UUCACUGCAGACUUGACGAAGCUG
Method in brief: as §1

biotinyl-Met-oxazolone = assay: self-aminoacylation, catalytic enhancement (BMO) (fold over background); higher = more active; k-Seq, kA / k0A0; sequences stand for … in GGGAAUGGAUCCACAUCUACGAAUUC…UUCACUGCAGACUUGACGAAGCUG
Method in brief: as §1

biotinyl-Ile-oxazolone = assay: self-aminoacylation, catalytic enhancement (BIO) (fold over background); higher = more active; k-Seq, kA / k0A0; sequences stand for … in GGGAAUGGAUCCACAUCUACGAAUUC…UUCACUGCAGACUUGACGAAGCUG
Method in brief: as §1

biotinyl-Trp-oxazolone = assay: self-aminoacylation, catalytic enhancement (BWO) (fold over background); higher = more active; k-Seq, kA / k0A0; sequences stand for … in GGGAAUGGAUCCACAUCUACGAAUUC…UUCACUGCAGACUUGACGAAGCUG
Method in brief: as §1

| Sequence | self-aminoacylation (biotinyl-Leu-oxazolone) | self-aminoacylation (biotinyl-Phe-oxazolone) | self-aminoacylation (biotinyl-Val-oxazolone) | self-aminoacylation (biotinyl-Met-oxazolone) | self-aminoacylation (biotinyl-Ile-oxazolone) | self-aminoacylation (biotinyl-Trp-oxazolone) |
| --- | --- | --- | --- | --- | --- | --- |
| CUACUUAAAUCAAUCGGUCUG [Fam1A.1 aminoacylation ribozyme variant] | 0.793 | 0.911 | 0.91 | 0.702 | 0.887 | 0.691 |
| CUACUACAAACACUCGGUCUG [Fam1A.1 aminoacylation ribozyme variant] | 0.902 | 0.434 | 1.03 | 0.856 | 1.08 | 0.703 |
| AAGUUUGCUAAUAGUCGCGAU [Fam3.1 aminoacylation ribozyme variant] | 1.47 | 1.53 | 1.37 | 1.33 | 1.46 | 1.86 |
| CCACUCUUCAAGCAAUCGUUC [Fam1B.1 aminoacylation ribozyme variant] | 0.724 | 1.06 | 0.857 | 0.915 | 0.87 | 0.68 |
| AUUCACCUAGGUCAGCUGGUG [Fam2.2 aminoacylation ribozyme variant] | 2.7 | 15.1 | 1.64 | 2.56 | 1.92 | 1.7 |
| CUACCUCACACAAUCGGUCUG [Fam1A.1 aminoacylation ribozyme variant] | 0.988 | 1.81 | 1.06 | 0.672 | 0.861 | 0.744 |
| AUUCACCUUGGUCAUUGGGUG [Fam2.2 aminoacylation ribozyme variant] | 3.56 | 21.4 | 2.17 | 2.9 | 2.11 | 3.18 |
| AUUCACGUAGGUCAUCGUGUG [Fam2.2 aminoacylation ribozyme variant] | 1.82 | 7.45 | 1.28 | 1.57 | 1.15 | 1.79 |
| AAUACCCUGGUCUUCGAGUGA [Fam2.1 aminoacylation ribozyme variant] | 3.26 | 12.6 | 2.32 | 3.34 | 2.2 | 4.72 |
| AAGUUUGCCAAAAGUCGCAAG [Fam3.1 aminoacylation ribozyme variant] | 1.57 | 1.01 | 1.36 | 1.39 | 1.41 | 1.54 |
| CCACACUUCAAGCAAAAGGUC [Fam1B.1 aminoacylation ribozyme variant] | 0.524 | 1.05 | 0.721 | 0.434 | 0.598 | 0.598 |
| AAGUUUGCUACUAGUCGCACG [Fam3.1 aminoacylation ribozyme variant] | 1.1 | 1.28 | 0.846 | 1.02 | 0.967 | 1.73 |
| CCACAGCUCAAGCAAUCGGUC [Fam1B.1 aminoacylation ribozyme variant] | 1.16 | 3.21 | 1.29 | 1.05 | 1.18 | 2.35 |
| AAGUUUGCUAACAGUCGCUAG [Fam3.1 aminoacylation ribozyme variant] | 0.823 | 1.36 | 0.899 | 0.738 | 0.756 | 0.96 |
| CUUCACAUAGGUCAUCGGGUG [Fam2.2 aminoacylation ribozyme variant] | 6.86 | 33 | 3.98 | 5.24 | 3.77 | 5.58 |
| AAGUUUGGUGAUAGUCGCAAG [Fam3.1 aminoacylation ribozyme variant] | 1.43 | 2.03 | 1.23 | 1.51 | 1.36 | 1.42 |
| CUACUUCCAACAAUCGGUCGG [Fam1A.1 aminoacylation ribozyme variant] | 1.03 | 0.78 | 1.07 | 1.01 | 1.04 | 1.28 |
| AUUACCCUAGUGAUCGAGUGA [Fam2.1 aminoacylation ribozyme variant] | 2.72 | 7.82 | 1.86 | 3.31 | 1.76 | 3.1 |
| AUUCACCUAUGUCAUCUGGUG [Fam2.2 aminoacylation ribozyme variant] | 2.51 | 1.9 | 1.62 | 2.04 | 1.79 | 2.01 |
| AUUCCCCUGGUCAUCGAAUGA [Fam2.1 aminoacylation ribozyme variant] | 2.09 | 2.91 | 1.96 | 2.45 | 2.24 | 2.15 |
| UAGUUUGCUAAUAGUCGCAAU [Fam3.1 aminoacylation ribozyme variant] | 1.28 | 3.04 | 1.61 | 1.38 | 1.52 | 1.88 |
| AUUCACCUAGUUCAUCGGUUG [Fam2.2 aminoacylation ribozyme variant] | 1.11 | 0.483 | 1.09 | 0.932 | 1.09 | 0.661 |
| CUACUUCAAUCCAUCGGUCUG [Fam1A.1 aminoacylation ribozyme variant] | 0.737 | 0.866 | 0.821 | 0.738 | 0.857 | 0.728 |
| AUUUACCUAGGUCAUCGGGUC [Fam2.2 aminoacylation ribozyme variant] | 1.33 | 0.638 | 1.27 | 1.26 | 1.12 | 1.02 |
| ACUCCCCUGGUCAUCGAGUGA [Fam2.1 aminoacylation ribozyme variant] | 6.71 | 42.7 | 3.69 | 6.39 | 3.18 | 6.48 |
| UAUCACCUAGGUCAUCGGGUG [Fam2.2 aminoacylation ribozyme variant] | 4.88 | 15.1 | 3.88 | 4.75 | 3.72 | 5.87 |

| Sequence | self-aminoacylation (biotinyl-Leu-oxazolone) | self-aminoacylation (biotinyl-Phe-oxazolone) | self-aminoacylation (biotinyl-Val-oxazolone) | self-aminoacylation (biotinyl-Met-oxazolone) | self-aminoacylation (biotinyl-Ile-oxazolone) | self-aminoacylation (biotinyl-Trp-oxazolone) |
| --- | --- | --- | --- | --- | --- | --- |
| AAUACCCUGGUCAUGGAGUGA [Fam2.1 aminoacylation ribozyme variant] | 3.47 | 1.9 | 1.86 | 2.43 | 2.21 | 3.45 |
| AUUACCCUGGUCAUCGAGCGU [Fam2.1 aminoacylation ribozyme variant] | 4.95 | 4.33 | 2.36 | 4.25 | 2.77 | 4.83 |
| AUUACCCUGGUCAUCGUGUAA [Fam2.1 aminoacylation ribozyme variant] | 1.26 | 0.847 | 1.18 | 1.07 | 1.13 | 0.503 |
| AAGUUUACUAAUAGUCGCAUG [Fam3.1 aminoacylation ribozyme variant] | 1.34 | 2.25 | 1.13 | 1.25 | 1.49 | 1.68 |
| AGUCACCUAGGUCAUCGGGAG [Fam2.2 aminoacylation ribozyme variant] | 1.74 | 1.38 | 1.76 | 1.93 | 1.65 | 2.56 |
| CUACUUCAAACAAUGGGUGUG [Fam1A.1 aminoacylation ribozyme variant] | 1.34 | 0.967 | 1.08 | 1.32 | 1.29 | 0.947 |
| UAGUUUGCUAAUUGUCGCAAG [Fam3.1 aminoacylation ribozyme variant] | 1.39 | 1.62 | 1.17 | 1.29 | 1.25 | 1.51 |
| AUUACCCGGGUCAUCGCGUGA [Fam2.1 aminoacylation ribozyme variant] | 28.3 | 178 | 15.6 | 25.4 | 12 | 27.8 |
| AAGUUUGGUACUAGUCGCAAG [Fam3.1 aminoacylation ribozyme variant] | 1.57 | 2.39 | 1.7 | 2.03 | 1.66 | 1.73 |
| CCACACCUCAAGCAAUCGGGC [Fam1B.1 aminoacylation ribozyme variant] | 1.71 | 1.92 | 2.33 | 1.49 | 1.86 | 2.11 |
| CUUACCCUGGUUAUCGAGUGA [Fam2.1 aminoacylation ribozyme variant] | 7.11 | 23.2 | 3.58 | 6.78 | 3.35 | 8.54 |
| AUUACUCUGAUCAUCGAGUGA [Fam2.1 aminoacylation ribozyme variant] | 5.35 | 19.3 | 2.95 | 5.85 | 2.93 | 6.7 |
| AUUACCCUGGUCAUCAGGUGA [Fam2.1 aminoacylation ribozyme variant] | 4.45 | 29.8 | 3.03 | 5.07 | 2.6 | 5.53 |
| AUUACCCUAAUCAUCGAGUGA [Fam2.1 aminoacylation ribozyme variant] | 6.87 | 19.8 | 3.39 | 6.83 | 3.28 | 7.8 |
| GGGUUUGCUAAUAGUCGCAAG [Fam3.1 aminoacylation ribozyme variant] | 2.45 | 12.3 | 2.01 | 1.89 | 2.32 | 6.82 |
| AAGUUUGCAAACAGUCGCAAG [Fam3.1 aminoacylation ribozyme variant] | 0.93 | 1.47 | 0.735 | 0.798 | 0.775 | 0.595 |
| AUUGCCCUGGUCUUCGAGUGA [Fam2.1 aminoacylation ribozyme variant] | 6.8 | 47.1 | 3.96 | 6.57 | 3.44 | 8.03 |
| AUGUUUGCUAAUAGUCGCAAA [Fam3.1 aminoacylation ribozyme variant] | 1.54 | 4.87 | 1.59 | 1.75 | 2.2 | 2.71 |
| AUUCACCUAGGUGCUCGGGUG [Fam2.2 aminoacylation ribozyme variant] | 4.46 | 31.1 | 3.1 | 3.67 | 3.07 | 3.64 |
| CCUCACUUCAAGCAAUCCGUC [Fam1B.1 aminoacylation ribozyme variant] | 0.736 | 1.94 | 0.873 | 0.613 | 0.935 | 0.756 |
| CCGCACUUCAAGCAAUCGGGC [Fam1B.1 aminoacylation ribozyme variant] | 1.69 | 2.26 | 2.52 | 1.35 | 1.92 | 2.11 |
| CGACACUUCAAGCAAUCAGUC [Fam1B.1 aminoacylation ribozyme variant] | 0.903 | 13.2 | 0.822 | 0.774 | 0.815 | 4.25 |
| CCCCACUUCAAGCAAACGGUC [Fam1B.1 aminoacylation ribozyme variant] | 1.03 | 2.34 | 1.41 | 1.36 | 1.33 | 1.67 |
| AAGGUUGCGAAUAGUCGCAAG [Fam3.1 aminoacylation ribozyme variant] | 1.2 | 6.53 | 1.03 | 1.37 | 1.64 | 0.982 |
| AAUCACCUUGGUCAUCGGGUG [Fam2.2 aminoacylation ribozyme variant] | 6.76 | 43.2 | 5.18 | 6.06 | 4.22 | 8.74 |
